From patent US20200062843A1 (CRAGE MEDICAL, published 2020)
Positions count from the first letter of the chain named. Read-outs that look alike come from different tables or passages of the source.

T1: human CD19 (human, UniProt P15391 20-556)
T1 construct: In the killing assay it is also on Daudi and Raji cells; also called K562-CD19; K562 cells stably transfected with human CD19
T1 sequence: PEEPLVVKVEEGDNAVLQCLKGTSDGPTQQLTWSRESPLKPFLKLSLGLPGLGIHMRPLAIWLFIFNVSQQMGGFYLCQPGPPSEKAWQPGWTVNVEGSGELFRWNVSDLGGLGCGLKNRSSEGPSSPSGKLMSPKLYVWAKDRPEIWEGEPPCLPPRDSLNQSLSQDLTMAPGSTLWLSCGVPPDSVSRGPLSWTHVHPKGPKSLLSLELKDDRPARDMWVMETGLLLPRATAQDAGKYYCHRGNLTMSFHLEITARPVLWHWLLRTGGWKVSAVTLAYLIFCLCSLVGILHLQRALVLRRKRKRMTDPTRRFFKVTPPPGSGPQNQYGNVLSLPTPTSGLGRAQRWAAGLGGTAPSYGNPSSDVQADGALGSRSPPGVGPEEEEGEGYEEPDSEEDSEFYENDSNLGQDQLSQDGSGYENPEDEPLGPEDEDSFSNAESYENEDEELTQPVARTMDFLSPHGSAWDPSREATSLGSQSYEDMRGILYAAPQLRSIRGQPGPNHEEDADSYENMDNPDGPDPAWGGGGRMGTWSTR

T2: human CD19 (UniProt P15391 20-556)
T2 chain: T1 sequence

B1: humanized antibody huHD37 (scFv_Fc fusion antibody) (Fc fusion)
scFv: QVQLVQSGAEVKKPGSSVKVSCKASGYTFSSYWMNWVRQAPGQGLEWMGQIWPGDGDTNYNGKFKGRVTITADESTSTAYMELSSLRSEDTAVYYCARRETTTVGRYYYAMDYWGQGTTVTVSSGGGGSGGGGSGGGGSDIVLTQSPASLAVSPGQRATITCKASQSVDYDGDSYLNWYQQKPGQPPKLLIYDASNLVSGVPARFSGSGSGTDFTLTINPVEANDTANYYCQQSTEDPWTFGQGTKVEIKR
notes: also called humanized huHD37; not shown: human IgG1 Fc fragment carried by the eukaryotic expression vector V152
B2: clone 8E3 (scFv_Fc) (Fc fusion)
scFv: B1 scFv with Q166H, V168L, S174N
notes: Only the light chain is said to differ from huHD37; not shown: Human Fc fragment of expression vector V152 (and any junction residues to it)
B3: clone 6B3 (scFv_Fc) (Fc fusion)
scFv: B1 scFv with M34I, D57E, N59H
B4: murine antibody HD37 (scFv chimeric with human IgG1 Fc) (Fc fusion)
VH: QVQLQQSGAELVRPGSSVKISCKASGYAFSSYWMNWVKQRPGQGLEWIGQIWPGDGDTNYNGKFKGKATLTADESSSTAYMQLSSLASEDSAVYFCARRETTTVGRYYYAMDYWGQGTTVTVSS
VL: DIQLTQSPASLAVSLGQRATISCKASQSVDYDGDSYLNWYQQIPGQPPKLLIYDASNLVSGIPPRFSGSGSGTDFTLNIHPVEKVDAATYHCQQSTEDPWTFGGGTKLEIKR
notes: also called parental antibody HD37; parental HD37

Legend:
human CD19 [1] = target: T1, human CD19; experiment: flow cytometry, scFv_Fc on K562-CD19 cells, FITC anti-human Fc
Description: (§1) K562 cells (K562-CD19) stably expressing human CD19 and K562 were used, and cells were harvested, washed with complete growth medium and plated into U-bottom microtiter plates at approximately 1−5×10⁵ cells/well. The gradient-diluted huHD37 scFv_Fc fusion antibody was incubated with K562-CD19/K562 for 30 minutes on ice, and then incubated with FITC-labeled anti-human Fc as a secondary antibody. After two washing steps, the analysis was performed using Guava easyCyte™ HT System, and the experimental data was processed using GraphPad Prism to obtain an EC50.
K562 cells stably expressing human CD19 (K562-CD19) and K562 were used, and cells were harvested, washed with complete growth medium, and plated into U-bottom microtiter plates at approximately 1−5×10⁵ cells/well. The gradient diluted scFv_Fc fusion antibody was incubated with K562-CD19/K562 for 30 minutes on ice, and then incubated with FITC-labeled anti-human Fc as a secondary antibody. After two washing steps, the analysis was performed using Guava easyCyte™ HT System, and the experimental data was processed using GraphPad Prism to obtain an EC50.

human CD19 [2] = target: T2, human CD19; experiment: FACS cell binding; avid
human CD19 [3] = target: T2, human CD19; experiment: FACS cell binding; avid
human CD19 [4] = target: T1, human CD19; experiment: flow cytometry on K562-CD19 cells
Description: as §1

| Binder | binding result (human CD19 [1]) | EC50 (human CD19 [2]) | EC50 (human CD19 [3]) | binding result (human CD19 [4]) |
| --- | --- | --- | --- | --- |
| B1 | binds | 4.7 nM |  |  |
| B2 | binds |  | 4.72 nM |  |
| B3 |  |  | 2.74 nM |  |
| B4 |  |  |  | binds |
